Residue numbers refer to the chain shown, from its start.
T1: 成熟型ヒトVEGF-D(Hisタッグ付加、二量体、参考例3) (human, UniProt O43915 93-201)
T1 construct: also called human VEGF-D; not shown: His tag
T1 sequence: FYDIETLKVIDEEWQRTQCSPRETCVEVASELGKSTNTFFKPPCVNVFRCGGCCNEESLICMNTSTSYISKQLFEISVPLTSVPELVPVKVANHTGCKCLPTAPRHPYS

T2: 成熟型カニクイザルVEGF-D(Hisタッグ付加、二量体、参考例3) (cynomolgus monkey, UniProt O43915 93-201 (human entry))
T2 construct: also called cynomolgus VEGF-D; not shown: His tag
T2 chain: T1 sequence with A103V

B1: VE199キメラ抗体 (antibody, human IgG1, V domains shown)
VH: EVQLQQSGPELVKPGASVKMSCKASGYSFTGYNMHWVKQSHGRSLEWIGYIDPYNGDTYYNQKFRDKATLTVDKSSSTAYMQLNSLTSEDSALYYCIRAGYYAMDYWGQGTSVTVSS
VL: DIVMTQTPLSLPVSLGDQASISCRSSQSLVHINGNTYLHWYLQKPGQSPKLLIYKVSNRFSGVPDRFSGSGSGTDFTLKISRVEAEDLGVYFCSQGTHVPRTFGGGTKLEIN
notes: also called キメラVE199; chimeric VE199
B2: VE29キメラ抗体 (antibody, human IgG1, V domains shown)
VH: DVQLQESGPGLVKPSQTVSLTCTVTGYSITNRYHWWNWIRQVSGNKLEWIGYISYSGDTVSNPSLKSRISITRDTSKNQLFLQLNSVTTEDIATYYCARDGGIYFDYWGQGTTLTVSS
VL: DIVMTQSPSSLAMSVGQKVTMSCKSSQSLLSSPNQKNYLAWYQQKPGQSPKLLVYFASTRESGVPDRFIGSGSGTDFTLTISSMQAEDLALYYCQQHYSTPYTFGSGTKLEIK
notes: also called キメラVE29; chimeric VE29
B3: ヒト化VE48抗体(H鎖:VE48HA、L鎖:VE48L6) (antibody, human IgG1, kappa, V domains shown)
VH: QVTLKESGPALVKPTQTLTLTCTFSGFSLSTYGMGVGWIRQPPGKALEWLANIWWNDDKYYNPVLRSRLTISKDTSKNQVVLTMTNMDPVDTATYYCVQVTNPFVFWGQGTLVTVSS
VL: DIVMTQTPLSLPVTPGEPASISCRSSQSLVHINGNTYLHWYLQKPGQSPQLLIYKVSNRFSGVPDRFSGSGSGTDFTLKISRVEAEDVGVYFCSQSTHVPWTFGGGTKVEIKR
notes: also called 48HA/48L6; HA/L6
B4: ヒト化抗体VE48抗体(48HK/48L6) (antibody, V domains shown)
VH: B3 VH with Q109E
VL: B3 VL
notes: The light chain is VE48L6; also called VE48HK/VE48L6
B5: ヒト化VE199抗体(H鎖:VE199HA、L鎖:VE199LA) (antibody, human IgG1, kappa, V domains shown)
VH: QVQLVQSGPEVKKPGASVKVSCKASGYTFTGYNMHWVRQAPGQGLEWMGYIDPYNGDTYYNQKFQDRVTLTVDKSTSTAYMELSSLRSEDTAVYYCIRAGYYAMDYWGQGTLVTVSS
VL: B3 VL with S96G, W101R
notes: also called VE199HALA
B6: ヒト化抗体VE48抗体(48HJ/48L6) (antibody, V domains shown)
VH: B3 VH with R66Q, S67D
VL: B3 VL
notes: The light chain is VE48L6; also called VE48HJ/VE48L6
B7: ヒト化抗体VE48抗体(48H18/48L6) (antibody, V domains shown)
VH: B3 VH with T31D, N56E, Q109E
VL: B3 VL
notes: The light chain is VE48L6; also called VE48H18/VE48L6
B8: ヒト化抗体VE48抗体(48HH/48L6) (antibody, V domains shown)
VH: B3 VH with N56E
VL: B3 VL
notes: The light chain is VE48L6; also called VE48HH/VE48L6
B9: ヒト化抗体VE48抗体(48H16/48L6) (antibody, V domains shown)
VH: B3 VH with T31D, Q109E
VL: B3 VL
notes: The light chain is VE48L6; also called VE48H16/VE48L6
B10: ヒト化抗体VE48抗体(48H17/48L6) (antibody, V domains shown)
VH: B3 VH with N56E, Q109E
VL: B3 VL
notes: The light chain is VE48L6; also called VE48H17/VE48L6
B11: HA/L14(H鎖:VE48HA、L鎖:VE48L14) (antibody, human IgG1, kappa, V domains shown)
VH: B3 VH
VL: B3 VL with N33K
notes: also called 48HA/48L14
B12: ヒト化抗体VE48抗体(48HI/48L6) (antibody, V domains shown)
VH: B3 VH with T31D
VL: B3 VL
notes: The light chain is VE48L6; also called VE48HI/VE48L6

Molecular target: T1, 成熟型ヒトVEGF-D(Hisタッグ付加、二量体、参考例3)
Assay: competition cell ELISA, antibody titrated against 2.5 ug/mL human VEGF-D on human VEGFR-3 CHO cells

Binder | binding result
B1 | binds
B2 | binds

Molecular target: T2, 成熟型カニクイザルVEGF-D(Hisタッグ付加、二量体、参考例3)
Assay: competition cell ELISA, antibody titrated against 2.5 ug/mL cynomolgus VEGF-D on cynomolgus VEGFR-3 CHO cells

Binder | binding result
B1 | binds

Molecular target: T1, 成熟型ヒトVEGF-D(Hisタッグ付加、二量体、参考例3)
Assay: competition cell ELISA, inhibition of human VEGF-D binding to human VEGFR-3 CHO cells, against chimeric VE48

Binder | binding result
B3 | binds
B4 | binds
B5 | binds
B6 | binds
B7 | binds
B8 | binds
B9 | binds
B10 | binds
B11 | binds
B12 | binds

Source: patent JP2011219380A (dated 2011)
